Substrate in the data set: C[C@H](N)C(=O)O
Description: purified protein. As to conditions: 0.5 mM ATP, 10 mM MgCl2, 50 mM Tris-HCl pH 7.5, 25°C, 0.25 µM enzyme, 5 min, alanine 0.1-0.5 mM.

The values below come from publication PMC3360062.

B1: Sare0718 (Salinispora arenicola) (protein)
chain: QRTSTTTTAETTTSTRATGRTNLPASPYPIHPPEPLATLSPRDRALFVRFGYGPTESVAHTHIHHAFEYWATVTPEAVAVEDGDETITYRELDQRADQLAARLAASGVRPGDRVALFVRRSIPMVVGLLAALKAGAAYVPQHVDTVPPAQLQHVIHTADTRVIMTLAATADRIPVPDGHVVITLDDLGKTEPTDLIAGRFTPATPLPPDSPCYVLFTSGSTGRPNGVVVTHRNICNILLTSPGNLGIQPGWKVGQILNIAFDMASWEILGALSHGATLVIRGSDIVETMSRVDVIIATPTVLSRTDPDRCQRVKVVAVAGEPCPRALADAWSAVCAFYNACGPTETTIVNTMSRHRPTAERLTIGRPTPNNTVYVLDADLRPCPIGTVGEMWAGGDCVSAGYLSNARLTAERYALDPFLGHGRLMFRTRDLGRWTPDGELEHFGRTDDQVKVRGFRVELDSVSAILEAVPGCTRAATIKLDDRSLVSFVAPAEVDPDLARMAVSEALPYYCVPETVHTLPELPTTSRGKIDKLALRRLVTRQDQLVTSQEQGATR
In general, Km refers to the concentration of substrate that gives half-maximal velocity. Broadly, the kcat is the number of substrate molecules converted per active site and unit of time at saturation. On to B1, for which the Km amounted to 116.4 ± 15.9 µM and the kcat turned out to be 0.209893 ± 0.00852 s⁻¹.
